Results on six substances are retold here after paper PMC2708935.

Several values for one entry are separate records, joined by “and”; a condition that tells them apart may be missing. Equal entries are not always repeated. Where two headings read alike, the source gives them in different places.

The Kd is a measure of binding affinity in units of concentration. A high value points to a looser complex. By stoichiometry N is commonly meant a count of units in the complex or per binding partner.

Test [1] concerns the target CR678, LRP fragment containing domains CR6, CR7 and CR8. Briefly: other fluorescence titration.
The target in test [2] is CR56, LRP fragment containing domains CR5 and CR6 (UniProt Q07954). Briefly: other fluorescence titration.
Chain of CR56, LRP fragment containing domains CR5 and CR6 (UniProt Q07954) (Q07954 932-1013): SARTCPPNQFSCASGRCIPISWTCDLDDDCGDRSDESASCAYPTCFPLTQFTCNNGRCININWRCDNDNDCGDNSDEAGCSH
In test [3] the target is CR567, LRP fragment containing domains CR5, CR6 and CR7. Description: other fluorescence titration.
Test [4] has as its target CR34, LRP fragment containing domains CR3 and CR4. Description: other fluorescence titration.
Test [5] concerns the target CR345, LRP fragment containing domains CR3, CR4 and CR5. Briefly: other fluorescence titration.
In test [6] the target is CR89, LRP fragment containing domains CR8 and CR9. Description: other fluorescence titration.
Test [7] deals with CR45, LRP fragment containing domains CR4 and CR5. Briefly: other fluorescence titration.
In test [8] the target is CR78, LRP fragment containing domains CR7 and CR8. Description: other fluorescence titration.
Chain of CR78, LRP fragment containing domains CR7 and CR8 (Q07954 20-4544): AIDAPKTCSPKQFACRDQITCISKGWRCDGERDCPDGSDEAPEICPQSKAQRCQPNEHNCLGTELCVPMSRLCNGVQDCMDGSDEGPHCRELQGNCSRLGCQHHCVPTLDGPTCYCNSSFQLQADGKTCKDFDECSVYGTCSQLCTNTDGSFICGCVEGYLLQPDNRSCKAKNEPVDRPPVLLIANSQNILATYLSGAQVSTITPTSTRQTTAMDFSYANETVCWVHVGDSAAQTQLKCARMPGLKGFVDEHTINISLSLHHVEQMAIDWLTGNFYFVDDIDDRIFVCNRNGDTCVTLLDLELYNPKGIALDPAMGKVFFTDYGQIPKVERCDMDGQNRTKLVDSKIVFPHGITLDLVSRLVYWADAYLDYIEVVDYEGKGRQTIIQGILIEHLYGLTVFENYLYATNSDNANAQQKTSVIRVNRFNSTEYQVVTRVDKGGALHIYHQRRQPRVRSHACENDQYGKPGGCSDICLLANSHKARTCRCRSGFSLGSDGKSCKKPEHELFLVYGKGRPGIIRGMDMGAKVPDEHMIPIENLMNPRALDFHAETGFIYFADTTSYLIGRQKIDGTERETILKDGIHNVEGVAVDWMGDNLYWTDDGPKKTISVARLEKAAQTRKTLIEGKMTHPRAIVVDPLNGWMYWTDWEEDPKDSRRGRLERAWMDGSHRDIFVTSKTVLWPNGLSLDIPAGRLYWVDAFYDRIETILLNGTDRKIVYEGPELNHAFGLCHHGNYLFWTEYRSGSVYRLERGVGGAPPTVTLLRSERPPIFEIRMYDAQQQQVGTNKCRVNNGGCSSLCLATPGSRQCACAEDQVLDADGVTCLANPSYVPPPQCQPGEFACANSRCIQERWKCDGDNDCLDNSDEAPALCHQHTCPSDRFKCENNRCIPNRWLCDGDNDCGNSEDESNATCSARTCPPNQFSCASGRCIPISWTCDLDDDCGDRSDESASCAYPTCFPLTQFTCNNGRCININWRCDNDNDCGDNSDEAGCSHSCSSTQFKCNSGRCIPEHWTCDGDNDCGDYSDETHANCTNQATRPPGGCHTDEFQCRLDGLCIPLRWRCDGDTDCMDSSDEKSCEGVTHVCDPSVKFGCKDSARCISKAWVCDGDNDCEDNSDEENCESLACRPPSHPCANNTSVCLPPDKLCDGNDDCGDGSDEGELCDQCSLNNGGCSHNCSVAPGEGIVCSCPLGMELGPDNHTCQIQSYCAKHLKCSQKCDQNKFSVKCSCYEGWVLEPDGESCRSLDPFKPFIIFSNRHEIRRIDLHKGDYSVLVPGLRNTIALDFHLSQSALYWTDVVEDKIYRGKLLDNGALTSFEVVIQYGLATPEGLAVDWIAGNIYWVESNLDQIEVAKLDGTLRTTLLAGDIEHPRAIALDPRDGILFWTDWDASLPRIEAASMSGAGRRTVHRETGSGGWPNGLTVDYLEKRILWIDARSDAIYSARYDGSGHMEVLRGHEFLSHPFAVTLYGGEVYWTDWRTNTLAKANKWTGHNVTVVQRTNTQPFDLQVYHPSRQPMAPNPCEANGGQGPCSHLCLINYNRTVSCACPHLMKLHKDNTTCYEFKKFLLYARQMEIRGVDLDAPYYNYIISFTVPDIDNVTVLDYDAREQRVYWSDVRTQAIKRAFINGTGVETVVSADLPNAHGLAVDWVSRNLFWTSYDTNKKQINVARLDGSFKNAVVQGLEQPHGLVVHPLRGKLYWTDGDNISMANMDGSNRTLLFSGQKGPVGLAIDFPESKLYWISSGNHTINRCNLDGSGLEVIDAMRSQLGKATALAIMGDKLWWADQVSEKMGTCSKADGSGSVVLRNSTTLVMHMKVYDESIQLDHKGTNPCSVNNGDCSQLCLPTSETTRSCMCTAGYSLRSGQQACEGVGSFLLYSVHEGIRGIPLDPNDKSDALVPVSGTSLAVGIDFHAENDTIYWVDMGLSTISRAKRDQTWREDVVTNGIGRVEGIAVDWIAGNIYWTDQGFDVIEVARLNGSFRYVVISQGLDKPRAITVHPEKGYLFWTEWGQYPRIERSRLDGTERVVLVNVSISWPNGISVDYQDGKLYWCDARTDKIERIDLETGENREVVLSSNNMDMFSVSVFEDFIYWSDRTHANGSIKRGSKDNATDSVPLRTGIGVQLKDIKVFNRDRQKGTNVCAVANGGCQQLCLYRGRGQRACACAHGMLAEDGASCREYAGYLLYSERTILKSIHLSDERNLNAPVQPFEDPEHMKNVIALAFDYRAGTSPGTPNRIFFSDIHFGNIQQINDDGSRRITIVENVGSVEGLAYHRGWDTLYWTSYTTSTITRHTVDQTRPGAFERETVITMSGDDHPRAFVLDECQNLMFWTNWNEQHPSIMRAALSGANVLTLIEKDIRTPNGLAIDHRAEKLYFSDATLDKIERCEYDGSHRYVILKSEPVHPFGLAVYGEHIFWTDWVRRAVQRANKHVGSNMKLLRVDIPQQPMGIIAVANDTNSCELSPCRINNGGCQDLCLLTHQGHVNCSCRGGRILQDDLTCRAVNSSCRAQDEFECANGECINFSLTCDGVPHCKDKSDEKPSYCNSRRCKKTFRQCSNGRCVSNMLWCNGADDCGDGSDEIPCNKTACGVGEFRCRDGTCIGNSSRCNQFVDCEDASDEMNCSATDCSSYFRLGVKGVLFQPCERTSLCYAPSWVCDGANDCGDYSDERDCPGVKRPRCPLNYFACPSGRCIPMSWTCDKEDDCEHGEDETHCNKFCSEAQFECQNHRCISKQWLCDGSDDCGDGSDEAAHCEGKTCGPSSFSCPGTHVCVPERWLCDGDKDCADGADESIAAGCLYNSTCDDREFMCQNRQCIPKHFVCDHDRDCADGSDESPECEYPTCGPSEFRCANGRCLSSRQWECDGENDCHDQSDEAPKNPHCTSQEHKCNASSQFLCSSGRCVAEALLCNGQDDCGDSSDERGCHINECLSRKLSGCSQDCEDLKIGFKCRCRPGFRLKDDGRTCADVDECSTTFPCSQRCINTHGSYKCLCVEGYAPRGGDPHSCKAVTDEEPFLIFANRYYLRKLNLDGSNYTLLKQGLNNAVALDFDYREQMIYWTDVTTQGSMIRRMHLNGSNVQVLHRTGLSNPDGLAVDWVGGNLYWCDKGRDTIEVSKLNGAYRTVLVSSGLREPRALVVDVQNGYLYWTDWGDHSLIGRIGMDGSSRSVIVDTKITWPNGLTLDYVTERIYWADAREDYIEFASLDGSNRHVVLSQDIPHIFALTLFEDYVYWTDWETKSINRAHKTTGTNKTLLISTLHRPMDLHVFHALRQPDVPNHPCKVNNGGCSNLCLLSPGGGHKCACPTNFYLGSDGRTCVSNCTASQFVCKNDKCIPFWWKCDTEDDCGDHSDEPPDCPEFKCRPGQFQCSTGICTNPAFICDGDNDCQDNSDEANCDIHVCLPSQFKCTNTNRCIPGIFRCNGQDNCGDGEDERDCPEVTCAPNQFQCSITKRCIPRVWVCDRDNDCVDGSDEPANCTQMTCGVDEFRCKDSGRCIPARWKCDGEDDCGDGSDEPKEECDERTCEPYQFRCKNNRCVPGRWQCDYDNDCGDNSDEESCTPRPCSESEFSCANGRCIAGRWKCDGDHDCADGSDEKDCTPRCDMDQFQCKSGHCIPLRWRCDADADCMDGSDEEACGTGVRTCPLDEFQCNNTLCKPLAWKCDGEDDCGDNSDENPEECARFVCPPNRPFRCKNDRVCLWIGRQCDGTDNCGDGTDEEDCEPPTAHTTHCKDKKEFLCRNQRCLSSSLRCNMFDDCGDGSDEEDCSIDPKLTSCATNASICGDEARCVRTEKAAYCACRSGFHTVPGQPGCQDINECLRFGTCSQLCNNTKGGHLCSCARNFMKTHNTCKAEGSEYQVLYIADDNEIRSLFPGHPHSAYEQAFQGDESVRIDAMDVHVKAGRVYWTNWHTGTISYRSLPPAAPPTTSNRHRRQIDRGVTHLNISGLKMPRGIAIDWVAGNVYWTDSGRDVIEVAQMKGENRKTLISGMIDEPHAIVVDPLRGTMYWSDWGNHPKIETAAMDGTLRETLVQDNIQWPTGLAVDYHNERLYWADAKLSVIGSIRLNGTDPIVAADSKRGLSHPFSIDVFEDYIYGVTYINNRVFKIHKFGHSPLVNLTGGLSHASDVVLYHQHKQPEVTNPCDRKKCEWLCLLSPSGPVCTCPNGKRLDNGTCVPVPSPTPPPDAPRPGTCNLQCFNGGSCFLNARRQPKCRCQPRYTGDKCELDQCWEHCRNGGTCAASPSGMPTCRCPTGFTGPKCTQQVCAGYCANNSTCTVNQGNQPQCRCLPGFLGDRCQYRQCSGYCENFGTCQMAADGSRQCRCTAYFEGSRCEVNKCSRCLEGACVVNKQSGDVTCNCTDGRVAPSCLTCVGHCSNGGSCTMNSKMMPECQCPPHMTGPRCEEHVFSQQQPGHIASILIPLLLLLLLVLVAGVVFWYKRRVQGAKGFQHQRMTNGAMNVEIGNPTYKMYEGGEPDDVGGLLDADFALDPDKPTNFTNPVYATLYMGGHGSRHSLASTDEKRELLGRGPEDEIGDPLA
Test [9] has as its target CR56, LRP fragment containing domains CR5 and CR6 (UniProt Q07954). Briefly: ITC.
Test [10] has as its target receptor-associated protein (RAP), GST-free (UniProt P30533). Briefly: AUC.
For test [11] the target is unchanged. Briefly: native gel or EMSA. For orientation: Mobility shift assays separate free from complexed probe on a gel.
The target is the same in test [12]. Briefly: other fluorescence titration.
Test [13] shares this target. Description: SEC. On the technique in general: Size exclusion chromatography separates by hydrodynamic size, large species first.
The target in test [14] is RAP domain 1 (D1). Briefly: other fluorescence titration.
Test [15] concerns the target RAP domain 3 (D3). Description: other fluorescence titration.
Test [16] has as its target RAP domain 2 (D2) (UniProt P30533). Briefly: other fluorescence titration.
Test [17] concerns the target RAP domain 1 (D1). Briefly: other fluorescence titration. This is another data set of the same source.
The target of test [18] is RAP domain 3 (D3). Description: other fluorescence titration. This is another data set of the same source.
The target in test [19] is RAP domain 2 (D2) (UniProt P30533). Description: other fluorescence titration. This is another data set of the same source.
Test [20] has as its target receptor-associated protein (RAP), GST-free (UniProt P30533). Description: ITC. On the technique in general: Isothermal titration calorimetry measures the heat released or taken up as one component is titrated into another.
Test [21] addresses CR456, LRP fragment containing domains CR4, CR5 and CR6. Briefly: other fluorescence titration.

Chain of CR56, LRP fragment containing domains CR5 and CR6 (from UniProt Q07954 932-1013) (domain or fragment) (Q07954 932-1013): as the sequence (Q07954 932-1013) above
Chain of RAP domain 1 (D1) (domain or fragment) (P30533 35-357): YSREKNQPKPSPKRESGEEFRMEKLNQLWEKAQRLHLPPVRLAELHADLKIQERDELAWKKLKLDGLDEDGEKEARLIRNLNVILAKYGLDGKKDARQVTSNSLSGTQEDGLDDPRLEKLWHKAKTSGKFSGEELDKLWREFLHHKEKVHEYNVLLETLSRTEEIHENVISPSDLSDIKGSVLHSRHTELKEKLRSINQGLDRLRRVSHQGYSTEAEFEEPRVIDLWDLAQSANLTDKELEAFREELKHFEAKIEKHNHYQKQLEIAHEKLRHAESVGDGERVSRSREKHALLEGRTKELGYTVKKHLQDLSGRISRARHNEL
Chain of RAP domain 3 (D3) (domain or fragment) (P30533 35-357): as above
Chain of receptor-associated protein (RAP), GST-free (P30533 35-357): as above
Chain of CR34, LRP fragment containing domains CR3 and CR4 (Q07954 20-4544): as the sequence (Q07954 20-4544) above
Chain of CR456, LRP fragment containing domains CR4, CR5 and CR6 (domain or fragment) (Q07954 20-4544): as above

As for “RAP domain 2 (D2) (from UniProt P30533 35-357) (domain or fragment)”, the Kd in test [1] came out at 44 nM; in test [2] it was 54 nM; in test [3], 18 nM; in [4], 19 nM; in test [5] it was 23 nM; in test [6] it was 42 nM. Further, the Kd in [7] came to 30 nM; in test [8], 116 nM; in [9] it was 270 nM. In addition, the dH in test [9] was -8.8 kcal/mol.
For the substance “CR345, LRP fragment containing domains CR3, CR4 and CR5 (domain or fragment)”, in test [10], the stoichiometry N (CR345 per RAP) is 2 and 2.3. Also, the stoichiometry N (equivalents of CR per RAP) in test [11] stood at 2. In test [12], this substance came in with a Kd1 (site 1, fixed in the fit) of 20 nM and a Kd2 (site 2) of 42 nM. Also, the stoichiometry N (CR345 per RAP) in test [13] was 1.8.
For RAP domain 1 (D1) (domain or fragment), the equilibrium dissociation constant (Kd) was 859 nM in test [1]; 20 nM in test [2]; 15 nM in test [3]; 38 nM in [4]; 23 nM in test [5]; 35 nM in test [6]. Also, the figures for the Kd in test [7], in test [8] and in test [9] were 24 nM, 927 nM and 62 nM, respectively. The dH in test [9] is -18.4 kcal/mol.
Turning to “CR56, LRP fragment containing domains CR5 and CR6 (from UniProt Q07954 932-1013) (domain or fragment)”, the stoichiometry N in [10] was 2 CR56 per RAP and 2.6 CR56 per RAP; in test [20], 2 CR56 per RAP; in test [13], 2.1 CR56 per RAP. In addition, in [11], the stoichiometry N (equivalents of CR per RAP) amounted to 2. This substance also registered a Kd1 (site 1, fixed in the fit) in [12] of 20 nM. The substance further had a Kd2 (site 2) in test [12] of 56 nM. The Kd in test [14] came to 29 nM; in test [15] it was 7 nM; in test [16] it was 22 nM; in test [17], 26 nM; in test [18], 41 nM; in [19], 46 nM. In addition, in test [20], the dH (overall, two equivalents of CR56) is -39.2 kcal/mol.
As for RAP domain 3 (D3) (domain or fragment), the Kd in [1] was 26 nM; in [2] it was 37 nM; in test [3] it was 5.3 nM; in [4] it was 3.5 nM; in [21], 8 nM; in test [6] it was 20 nM. Besides, the Kd was determined as 17 nM in [7], 55 nM in test [8] and 77 nM in test [9]. Besides, in test [9], the dH is -17.1 kcal/mol.
Turning to “CR456, LRP fragment containing domains CR4, CR5 and CR6 (domain or fragment)”, in test [11], the stoichiometry N (equivalents of CR per RAP) came out at 2. Further, in test [12], the Kd1 (site 1, fixed in the fit) worked out at 10 nM and the Kd2 (site 2) turned out to be 36 nM.
